B1: domain I of human TPC2 (TPC2^1–339) (domain or fragment, UniProt Q8NHX9 1-339, looked up)
chain: MAEPQAESEPLLGGARGGGGDWPAGLTTYRSIQVGPGAAARWDLCIDQAVVFIEDAIQYRSINHRVDASSMWLYRRYYSNVCQRTLSFTIFLILFLAFIETPSSLTSTADVRYRAAPWEPPCGLTESVEVLCLLVFAADLSVKGYLFGWAHFQKNLWLLGYLVVLVVSLVDWTVSLSLVCHEPLRIRRLLRPFFLLQNSSMMKKTLKCIRWSLPEMASVGLLLAIHLCLFTMFGMLLFAGGKQDDGQDRERLTYFQNLPESLTSLLVLLTTANNPDVMIPAYSKNRAYAIFFIVFTVIGSLFLMNLLTAIIYSQFRGYLMKSLQTSLFRRRLGTRAAFE
B2: domain II of human TPC2 (TPC2^422–752) (domain or fragment, UniProt Q8NHX9 422-752, looked up)
chain: LQSAQFLFGHYYFDYLGNLIALANLVSICVFLVLDADVLPAERDDFILGILNCVFIVYYLLEMLLKVFALGLRGYLSYPSNVFDGLLTVVLLVLEISTLAVYRLPHPGWRPEMVGLLSLWDMTRMLNMLIVFRFLRIIPSMKLMAVVASTVLGLVQNMRAFGGILVVVYYVFAIIGINLFRGVIVALPGNSSLAPANGSAPCGSFEQLEYWANNFDDFAAALVTLWNLMVVNNWQVFLDAYRRYSGPWSKIYFVLWWLVSSVIWVNLFLALILENFLHKWDPRSHLQPLAGTPEATYQMTVELLFRDILEEPGEDELTERLSQHPHLWLCR
B3: domain I of human TPC1 (TPC1^1–347) (domain or fragment)
chain: not shown
B4: domain II of human TPC1 (TPC1^427–816) (domain or fragment)
chain: not shown
modifications: N-glycosylated (bands sensitive to PNGase F)
B5: first four TM regions of human TPC1 (TPC1^1–225) (domain or fragment)
chain: not shown

Columns and labels:
cross-linking [1] = target: the molecule itself; test: cross-linking
[2] = target: the molecule itself; test: SDS/PAGE and Western blot without cross-linker
cross-linking [3] = target: the molecule itself; test: cross-linking; remark: listed apart in the source

Row | Protein | stoichiometry N (cross-linking [1]) | stoichiometry N [2] | stoichiometry N (cross-linking [3])
1 | B1 | 2.3 | 2 | 
2 | B2 | 2.2 |  | 
3 | B3 | 2.1 |  | 
4 | B4 | 2.2 | 2 | 
5 | B5 |  |  | 2
